T1: IL1RL1 over-expressed on Expi293 cells (UniProt Q01638 19-556, limits assumed)
T1 construct: whole, on cells; Target of the flow cytometry MFI ratio (over-expressing cells over parent cells); also called cytokine over-expressing Expi293 cells
T1 sequence (looked up): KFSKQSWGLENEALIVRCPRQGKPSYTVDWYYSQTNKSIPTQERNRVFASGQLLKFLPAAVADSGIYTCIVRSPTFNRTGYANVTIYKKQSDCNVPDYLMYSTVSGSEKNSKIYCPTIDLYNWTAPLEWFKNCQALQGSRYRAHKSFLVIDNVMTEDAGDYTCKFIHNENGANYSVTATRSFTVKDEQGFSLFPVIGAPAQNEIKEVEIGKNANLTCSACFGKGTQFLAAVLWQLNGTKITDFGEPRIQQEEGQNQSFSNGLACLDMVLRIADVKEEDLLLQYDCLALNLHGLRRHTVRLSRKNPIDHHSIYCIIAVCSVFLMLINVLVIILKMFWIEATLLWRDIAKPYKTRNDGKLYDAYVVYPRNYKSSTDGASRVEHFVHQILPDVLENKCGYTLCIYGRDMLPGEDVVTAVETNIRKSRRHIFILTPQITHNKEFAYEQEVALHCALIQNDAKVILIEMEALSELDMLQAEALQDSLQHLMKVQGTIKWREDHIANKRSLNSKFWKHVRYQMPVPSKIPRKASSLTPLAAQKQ

T2: CD40L (UniProt P29965 113-261, limits assumed)
T2 construct: SPR analyte
T2 sequence (looked up): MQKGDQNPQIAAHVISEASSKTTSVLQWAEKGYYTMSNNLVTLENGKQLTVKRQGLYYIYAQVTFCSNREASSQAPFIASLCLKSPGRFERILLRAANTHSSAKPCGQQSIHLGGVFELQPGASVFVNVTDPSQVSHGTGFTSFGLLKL

T3: CD40L over-expressed on Expi293 cells (UniProt P29965 1-261, limits assumed)
T3 construct: whole, on cells; also called cytokine over-expressing Expi293 cells
T3 sequence (looked up): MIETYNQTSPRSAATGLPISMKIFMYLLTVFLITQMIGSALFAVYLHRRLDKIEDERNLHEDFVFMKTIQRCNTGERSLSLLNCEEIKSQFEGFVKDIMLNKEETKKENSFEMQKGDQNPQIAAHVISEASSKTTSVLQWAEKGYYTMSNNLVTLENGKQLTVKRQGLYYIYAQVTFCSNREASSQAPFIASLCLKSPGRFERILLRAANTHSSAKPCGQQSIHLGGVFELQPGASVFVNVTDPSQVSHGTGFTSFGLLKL


Experiments:
[1] = molecular target: T1, IL1RL1 over-expressed on Expi293 cells; assay: flow cytometry, 100 nM antibody, over-expressing Expi293 / parent cells
Procedure: (§1) All incubations and washes were in buffer containing PBS+1% BSA. MFI Ratio is defined by the mean fluorescence intensity (MFI) of the cytokine over-expressing Expi293 cell over the Expi293 parent cell. […] EC50 was calculated in GraphPad Prism.

CD40L = molecular target: T2, CD40L; assay: SPR (Carterra LSA), antibody amine-coupled, 1:1 model
Procedure: SPR experiments were performed on a Carterra LSA SPR biosensor equipped with a HC30M chip at 25° C. in HBS-TE. Antibodies were diluted to 10 μg/mL and amine-coupled to the sensor chip by EDC/NHS activation, followed by ethanolamine HCl quenching. Increasing concentrations of analyte were flowed over the sensor chip in HBS-TE with 0.5 mg/mL BSA with 5-minute association and 15-minute dissociation. Following each injection cycle the surface was regenerated with 2× 30-second injections of IgG elution buffer (Thermo). Data were analyzed in Carterra's Kinetics Tool software with 1:1 binding model.

[2] = molecular target: T3, CD40L over-expressed on Expi293 cells; assay: flow cytometry, 100 nM antibody, CD40L-Expi293 vs parent Expi293 cells;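 also: ratio is the mean fluorescence intensity on CD40L-overexpressing Expi293 cells divided by the mean fluorescence intensity on parental Expi293 cells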
Procedure: as §1

100 nM FACS (MFI Ratio) [1] [MFI ratio] | Kd (CD40L) [nM] | koff (CD40L) [s⁻¹] | kon (CD40L) [M⁻¹ s⁻¹] | 100 nM FACS (MFI Ratio) [2] [ratio] | Binder
515 |  |  |  |  | IL1RL1-30 (Fc fusion, not shown: a dimerising Fc or GST, VHH-Fc on IgG2 Fc) VHH: EVQLVESGGGLVQPGGSLRLSCAASGDISSIVAMGWFRQAPGKEREWVASISTSGSTITPYADSVKGRFTISADNSKNTAYLQMNSLKPEDTAVYYCAAGAVRYGVSTSPMNYNWGQGTLVTVSS
 | 9.87 | 0.000637 | 64500 | 76.7 | CD40L-34 (VHH) VHH: EVQLVESGGGLVQPGGSLRLSCAASGRTISNAAMGWFRQAPGKEREFVAAISFRGDSAIYADSVKGRFTISADNSKNTAYLQMNSLKPEDTAVYYCARDAAGDYYYNLDVWGQGTLVTVSS
 | 8.47 | 0.000685 | 80800 | 15.5 | CD40L-41 (VHH) VHH: EVQLVESGGGLVQPGGSLRLSCAASGSTFSKHHAMGWFRQAPGKERELVASISSDNYTVYADSVKGRFTISADNSKNTAYLQMNSLKPEDTAVYYCAREAANYREPPLWGQGTLVTVSS
 | 0.194 | 6.25e-05 | 322000 | 114 | CD40L-39 (VHH) VHH: EVQLVESGGGLVQPGGSLRLSCAASGGTLDDYVMGWFRQAPGKEREFVASIGRSGNSAVNTDYADSVKGRFTISADNSKNTAYLQMNSLKPEDTAVYYCAREPYSGTYYPRYWGQGTLVTVSS
 | 33.6 | 0.000801 | 23800 | 4.7 | CD40L-29 (VHH) VHH: EVQLVESGGGLVQPGGSLRLSCAASGRTFSSYAMGWFRQAPGKEREFVAVIYSSDGSTLYADSVKGRFTISADNSKNTAYLQMNSLKPEDTAVYYCAAEHTLGRPSRSQINYLWGQGTLVTVSS
4.47 |  |  |  |  | IL1RL1-85 (Fc fusion, not shown: a dimerising Fc or GST, VHH-Fc on IgG2 Fc) VHH: EVQLVESGGGLVQPGGSLRLSCAASGRTFSTAGMGWFRQAPGKEREWVASIITSGSTITPYADSVKGRFTISADNSKNTAYLQMNSLKPEDTAVYYCAVVDLLRGKLWGQGTLVTVSS
476 |  |  |  |  | IL1RL1-34 (Fc fusion, not shown: a dimerising Fc or GST, VHH-Fc on IgG2 Fc) VHH: EVQLVESGGGLVQPGGSLRLSCAASGSTFSNAVMGWFRQAPGKEREFVAVIIDSRTTKYADSVKGRFTISADNSKNTAYLQMNSLKPEDTAVYYCAAVGGATTVTASEWDWGQGTLVTVSS
1.49 |  |  |  |  | IL1RL1-80 (Fc fusion, not shown: a dimerising Fc or GST, VHH-Fc on IgG2 Fc) VHH: EVQLVESGGGLVQPGGSLRLSCAASGRTFSPIAMGWFRQAPGKEREMVAVIIDSRTTKYADSVKGRFTISADNSKNTAYLQMNSLKPEDTAVYYCAAVGGATTVTASEWDWGQGTLVTVSS
1.6 |  |  |  |  | IL1RL1-55 (Fc fusion, not shown: a dimerising Fc or GST, VHH-Fc on IgG2 Fc) VHH: EVQLVESGGGLVQPGGSLRLSCAASGEIASIIAMGWFRQAPGKERELVAVIIGGGSTNYADSVKGRFTISADNSKNTAYLQMNSLKPEDTAVYYCAAVGGATTVTASEWDWGQGTLVTVSS
1.37 |  |  |  |  | IL1RL1-38 (Fc fusion, not shown: a dimerising Fc or GST, VHH-Fc on IgG2 Fc) VHH: EVQLVESGGGLVQPGGSLRLSCAASGFTFSNHIMGWFRQAPGKERELVAVIIDSRTTKYADSVKGRFTISADNSKNTAYLQMNSLKPEDTAVYYCAAVGGATTVTASEWDWGQGTLVTVSS
 | 10 | 0.0001 | 10000 | 3.2 | CD40L-55 (VHH) VHH: EVQLVESGGGLVQPGGSLRLSCAASGLPFSTLHMGWFRQAPGKEREFVAAISRSGNLKAYADSVKGRFTISADNSKNTAYLQMNSLKPEDTAVYYCAADDYLGGDNWYLGPYDWGQGTLVTVSS
 | ≤ 0.174 | ≤ 1e-05 | 57600 | 76.6 | CD40L-51 (VHH) VHH: EVQLVESGGGLVQPGGSLRLSCAASGYFASWYYMGWFRQAPGKEREEVATFYTGDGRTYYADSVKGRFTISADNSKNTAYLQMNSLKPEDTAVYYCAAWLNGGNRWGQGTLVTVSS
 | 8.48 | 0.000998 | 118000 | 68.4 | CD40L-48 (VHH) VHH: EVQLVESGGGLVQPGGSLRLSCAASGFTFSRYEMGWFRQAPGKEREFVAAVTEGGTTSYADSVKGRFTISADNSKNTAYLQMNSLKPEDTAVYYCAAESLGRWWGQGTLVTVSS
473 |  |  |  |  | IL1RL1-28 (Fc fusion, not shown: a dimerising Fc or GST, VHH-Fc on IgG2 Fc) VHH: EVQLVESGGGLVQPGGSLRLSCAASGRTISRYTMGWFRQAPGKEREFVAGIWSGGYTHYADSVKGRFTISADNSKNTAYLQMNSLKPEDTAVYYCAAVSSNTEIFDWGQGTLVTVSS
514 |  |  |  |  | IL1RL1-35 (Fc fusion, not shown: a dimerising Fc or GST, VHH-Fc on IgG2 Fc) VHH: EVQLVESGGGLVQPGGSLRLSCAASGLTISSLTMGWFRQAPGKEREFVAGIWSGGYTHYADSVKGRFTISADNSKNTAYLQMNSLKPEDTAVYYCAAVSSNTEIFDWGQGTLVTVSS
 | ≤ 0.0842 | ≤ 1e-05 | 119000 | 29.5 | CD40L-35 (VHH) VHH: EVQLVESGGGLVQPGGSLRLSCAASGLTFSSYWMGWFRQAPGKERELVASITDGGSTNYADSVKGRFTISADNSKNTAYLQMNSLKPEDTAVYYCAVQVNGIWAWGQGTLVTVSS
431 |  |  |  |  | IL1RL1-29 (Fc fusion, not shown: a dimerising Fc or GST, VHH-Fc on IgG2 Fc) VHH: EVQLVESGGGLVQPGGSLRLSCAASGGFSVYAMGWFRQAPGKEREWVSSTSTGGGGTYYADSVKGRFTISADNSKNTAYLQMNSLKPEDTAVYYCAANVGVTGSYEWGQGTLVTVSS
 | 2.87 | 0.000445 | 155000 | 41.9 | CD40L-28 (VHH) VHH: EVQLVESGGGLVQPGGSLRLSCAASGVTVDYSGMGWFRQAPGKEREFVSAISSYSGNTYYADSVKGRFTISADNSKNTAYLQMNSLKPEDTAVYYCAAAYGGGLYRDPRSYDWGQGTLVTVSS
 | 2.38 | 0.000536 | 225000 | 41.8 | CD40L-47 (VHH) VHH: EVQLVESGGGLVQPGGSLRLSCAASGRTLVNYDMGWFRQAPGKEREFVAAISMSGEDTIYADSVKGRFTISADNSKNTAYLQMNSLKPEDTAVYYCTTGGGTRDYWGQGTLVTVSS
 | 0.819 | 0.000353 | 431000 | 59.2 | CD40L-36 (VHH) VHH: EVQLVESGGGLVQPGGSLRLSCAASGFSLDDYAMGWFRQAPGKEREFVASVNWSGKDTYYADSVKGRFTISADNSKNTAYLQMNSLKPEDTAVYYCARDGGTYGMDVWGQGTLVTVSS
 | 11.5 | 0.000576 | 50200 | 45.7 | CD40L-46 (VHH) VHH: EVQLVESGGGLVQPGGSLRLSCAASGFTFSRYEMGWFRQAPGKEREWVASLYLNGDYPYYADSVKGRFTISADNSKNTAYLQMNSLKPEDTAVYYCAIPHGIAGRITWGQGTLVTVSS
 | 8.61 | 0.00052 | 60300 | 49 | CD40L-38 (VHH) VHH: EVQLVESGGGLVQPGGSLRLSCAASGVTFSSYDMGWFRQAPGKEREFVAAINWSGGSRSYADSVKGRFTISADNSKNTAYLQMNSLKPEDTAVYYCAIPRFRPYEYDWGQGTLVTVSS
 | 1.2 | 0.000176 | 147000 | 93.2 | CD40L-25 (VHH) VHH: EVQLVESGGGLVQPGGSLRLSCAASGFTFSRYEMGWFRQAPGKEREFVAAVTEDGSINYADSVKGRFTISADNSKNTAYLQMNSLKPEDTAVYYCAAVYVSTWGNGYDWGQGTLVTVSS
 | 2.92 | 0.000769 | 263000 | 64 | CD40L-57 (VHH) VHH: EVQLVESGGGLVQPGGSLRLSCAASGFTFSRYEMGWFRQAPGKEREFVATITEGGARNYADSVKGRFTISADNSKNTAYLQMNSLKPEDTAVYYCAAVYVSTWGNGYDWGQGTLVTVSS
